What was measured:
[1] = test system: T1, hKSR-2-FLAG (full-length human KSR-2 with the FLAG epitope at its carboxyl terminus)
T1 sequence: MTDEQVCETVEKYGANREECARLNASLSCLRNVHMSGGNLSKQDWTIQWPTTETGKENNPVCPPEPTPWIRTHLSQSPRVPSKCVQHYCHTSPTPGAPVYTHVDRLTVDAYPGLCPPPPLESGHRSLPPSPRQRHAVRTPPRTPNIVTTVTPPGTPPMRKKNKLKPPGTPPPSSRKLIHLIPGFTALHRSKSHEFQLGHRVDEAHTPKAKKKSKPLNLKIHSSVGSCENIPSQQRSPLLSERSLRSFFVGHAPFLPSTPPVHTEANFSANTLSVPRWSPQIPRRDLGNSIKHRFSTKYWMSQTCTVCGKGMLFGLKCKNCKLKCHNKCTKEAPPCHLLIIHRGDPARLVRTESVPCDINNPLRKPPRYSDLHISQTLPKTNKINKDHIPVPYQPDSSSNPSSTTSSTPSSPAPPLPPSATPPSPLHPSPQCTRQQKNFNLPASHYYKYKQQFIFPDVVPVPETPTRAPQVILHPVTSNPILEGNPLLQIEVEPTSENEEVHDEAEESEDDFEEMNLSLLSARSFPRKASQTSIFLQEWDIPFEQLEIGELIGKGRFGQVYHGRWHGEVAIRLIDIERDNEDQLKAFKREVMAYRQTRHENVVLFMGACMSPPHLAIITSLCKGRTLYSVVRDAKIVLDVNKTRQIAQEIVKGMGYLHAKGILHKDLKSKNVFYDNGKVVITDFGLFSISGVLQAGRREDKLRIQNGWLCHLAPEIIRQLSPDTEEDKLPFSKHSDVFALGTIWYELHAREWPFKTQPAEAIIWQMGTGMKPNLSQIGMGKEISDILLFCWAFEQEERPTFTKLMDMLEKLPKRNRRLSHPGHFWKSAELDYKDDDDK

[2] = target: T2, hKSR-2-FLAG (full-length human KSR-2 with the FLAG epitope at its carboxyl terminus)
T2 chain: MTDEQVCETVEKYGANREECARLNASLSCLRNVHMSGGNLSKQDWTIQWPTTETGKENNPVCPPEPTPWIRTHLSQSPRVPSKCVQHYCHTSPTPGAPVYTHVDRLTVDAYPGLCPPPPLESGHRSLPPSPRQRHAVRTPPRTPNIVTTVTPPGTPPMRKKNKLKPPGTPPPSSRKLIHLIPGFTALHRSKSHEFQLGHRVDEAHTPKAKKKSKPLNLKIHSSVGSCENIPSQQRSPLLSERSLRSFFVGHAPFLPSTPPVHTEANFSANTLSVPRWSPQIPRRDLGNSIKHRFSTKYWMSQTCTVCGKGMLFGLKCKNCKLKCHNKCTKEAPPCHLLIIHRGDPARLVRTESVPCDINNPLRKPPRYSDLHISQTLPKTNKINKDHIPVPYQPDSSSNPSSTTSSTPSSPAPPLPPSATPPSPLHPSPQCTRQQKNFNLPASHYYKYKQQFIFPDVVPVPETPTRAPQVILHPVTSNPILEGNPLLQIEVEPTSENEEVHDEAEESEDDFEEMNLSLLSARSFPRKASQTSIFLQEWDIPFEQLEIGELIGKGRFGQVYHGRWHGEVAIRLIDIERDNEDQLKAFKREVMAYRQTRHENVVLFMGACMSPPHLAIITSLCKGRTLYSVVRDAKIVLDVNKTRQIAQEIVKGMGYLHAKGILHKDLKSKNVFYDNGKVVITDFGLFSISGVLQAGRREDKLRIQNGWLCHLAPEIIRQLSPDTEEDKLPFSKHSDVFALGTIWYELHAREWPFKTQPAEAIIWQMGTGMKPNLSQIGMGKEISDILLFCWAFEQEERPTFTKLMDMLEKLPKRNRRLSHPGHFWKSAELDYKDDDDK

[3] = target: T3, hKSR-2-FLAG (full-length human KSR-2 with the FLAG epitope at its carboxyl terminus) (human, UniProt Q6VAB6 122-950, limits assumed); assay: anti-FLAG immunoprecipitation from KSR-2-FLAG-transfected 293T lysate (about 1 mg protein), Western blot with commercial antibodies
T3 construct: Expressed in 293T cells from pcDNA-DEST-40; Tested in cell lysates, or eluted from anti-FLAG beads with FLAG peptide for the kinase assay
T3 sequence: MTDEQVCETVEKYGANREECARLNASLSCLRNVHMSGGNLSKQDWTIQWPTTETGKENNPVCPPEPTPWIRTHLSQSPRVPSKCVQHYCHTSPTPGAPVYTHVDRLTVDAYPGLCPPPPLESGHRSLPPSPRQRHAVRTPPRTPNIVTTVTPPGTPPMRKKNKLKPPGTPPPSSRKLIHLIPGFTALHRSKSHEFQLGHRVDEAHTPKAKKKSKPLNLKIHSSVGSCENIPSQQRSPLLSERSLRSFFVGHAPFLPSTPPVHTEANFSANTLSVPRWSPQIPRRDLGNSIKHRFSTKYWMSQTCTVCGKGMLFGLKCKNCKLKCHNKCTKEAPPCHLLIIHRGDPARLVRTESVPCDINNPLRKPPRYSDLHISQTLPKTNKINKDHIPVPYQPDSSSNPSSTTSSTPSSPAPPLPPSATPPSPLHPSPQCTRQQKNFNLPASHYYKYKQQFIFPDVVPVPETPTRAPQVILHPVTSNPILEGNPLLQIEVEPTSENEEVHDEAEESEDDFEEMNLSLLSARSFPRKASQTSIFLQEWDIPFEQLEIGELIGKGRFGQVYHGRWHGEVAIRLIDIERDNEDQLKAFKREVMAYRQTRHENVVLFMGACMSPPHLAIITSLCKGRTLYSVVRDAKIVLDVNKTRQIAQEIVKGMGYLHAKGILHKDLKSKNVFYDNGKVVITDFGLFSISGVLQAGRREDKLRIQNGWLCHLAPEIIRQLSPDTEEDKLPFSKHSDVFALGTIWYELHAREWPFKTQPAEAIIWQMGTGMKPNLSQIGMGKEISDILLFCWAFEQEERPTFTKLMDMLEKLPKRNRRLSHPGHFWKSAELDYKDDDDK
Method: To identify proteins that interact with human KSR-2, 293T cells were transfected with KSR-2-FLAG as described above. Cells transfected with FLAG vector alone served as a control. Cells were lysed as described above 48 h posttransfection. Protein concentrations were determined using the BCA protein assay. Cell lysates containing approximately 1 mg protein were subjected to anti-FLAG antibody immunoprecipitation followed by electrophoresis on a 2D gel resolved in only one dimension. The proteins were then transferred to nitrocellulose membranes and probed with various commercially available antibodies (Cell Signaling Technology, Beverly, Mass.) using the MN20SL Miniblotter (Immunetics, Cambridge, Mass.).

Raf enzyme (Upstate Biotechnology, Inc.)
Raf kinase activity (in vitro kinase assay, 33P phosphorylation of GST-MEK1-His6) [1]: Raf kinase activity was upregulated

B1: purified recombinant Cot/Tp12 (protein)
chain: MENLYASEEPAVYEPSLMTMCQDSNQNDERSKSLLLSGQEVPWLSSVRYGTVEDLLAFANHISNTAKHFYGQRPQESGILLNMVITPQNGRYQIDSDVLLIPWKLTYRNIGSDFIPRGAFGKVYLAQDIKTKKRMACKLIPVDQFKPSDVEIQACFRHENIAELYGAVLWGETVHLFMEAGEGGSVLEKLESCGPMREFEIIWVTKHVLKGLDFLHSKKVIHHDIKPSNIVFMSTKAVLVDFGLSVQMTEDVYFPKDLRGTEIYMSPEVILCRGHSTKADIYSLGATLIHMQTGTPPWVKRYPRSAYPSYLYIIHKQAPPLEDIADDCSPGMRELIEASLERNPNHRPRAADLLKHEALNPPREDQPR
Cot/Tp12 kinase activity (in vitro kinase assay, 33P phosphorylation of GST-MEK1-His6) [2]: KSR-2 reduced Cot/Tp12 kinase activity in a dose-dependent manner

B2: P.SEK1 (enzyme, UniProt P45985 2-399, looked up)
chain: AAPSPSGGGGSGGGSGSGTPGPVGSPAPGHPAVSSMQGKRKALKLNFANPPFKSTARFTLNPNPTGVQNPHIERLRTHSIESSGKLKISPEQHWDFTAEDLKDLGEIGRGAYGSVNKMVHKPSGQIMAVKRIRSTVDEKEQKQLLMDLDVVMRSSDCPYIVQFYGALFREGDCWICMELMSTSFDKFYKYVYSVLDDVIPEEILGKITLATVKALNHLKENLKIIHRDIKPSNILLDRSGNIKLCDFGISGQLVDSIAKTRDAGCRPYMAPERIDPSASRQGYDVRSDVWSLGITLYELATGRFPYPKWNSVFDQLTQVVKGDPPQLSNSEEREFSPSFINFVNLCLTKDESKRPKYKELLKHPFILMYEERAVEVACYVCKILDQMPATPSSPMYVD
modifications: phosphorylated (sites not given)
notes: Endogenous protein of 293T cells, probed with a commercial antibody; also called phosphorylated SEK1
binding result [3]: no binding

Reference: patent publication US20040265961A1 (published 2004)
